Experimental data published in patent publication US20260098102A1 (NATIONAL UNIVERSITY CORPORATION KOBE UNIVERSITY, published 2026).

T1: monkey SIRPA protein (cynomolgus monkey, UniProt P78324 31-504 (human entry))
T1 construct: Expressed on 293α cells from pcDNA3.2 V5-DEST or pFLAG V5-DEST vectors; also called cynomolgus monkey SIRPA; cSIRPA
T1 chain: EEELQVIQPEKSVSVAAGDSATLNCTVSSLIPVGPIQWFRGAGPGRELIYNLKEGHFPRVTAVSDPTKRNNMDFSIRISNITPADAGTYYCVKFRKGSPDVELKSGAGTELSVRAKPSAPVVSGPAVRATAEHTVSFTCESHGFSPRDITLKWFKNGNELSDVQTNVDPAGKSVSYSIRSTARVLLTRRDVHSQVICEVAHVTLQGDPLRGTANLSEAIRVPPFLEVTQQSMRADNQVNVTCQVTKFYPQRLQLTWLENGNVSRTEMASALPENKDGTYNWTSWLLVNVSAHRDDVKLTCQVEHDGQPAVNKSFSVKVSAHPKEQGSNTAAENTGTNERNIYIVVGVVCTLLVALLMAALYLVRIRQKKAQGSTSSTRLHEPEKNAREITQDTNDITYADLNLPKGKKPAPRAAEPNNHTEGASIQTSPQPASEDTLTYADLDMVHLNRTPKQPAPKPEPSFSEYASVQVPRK


Assays:
monkey SIRPA protein = target: T1, monkey SIRPA protein; assay: cell-based ELISA on 293α cells expressing FLAG-tagged monkey SIRPA; Abs 490 normalized to FLAG tag
human SIRPA_V1 protein = target: T2, human SIRPA_V1 protein (human, UniProt P78324 31-504); assay: blocking cell-based ELISA: peroxidase-labeled CD47-Fc (10,000 ng/mL) on 293α cells expressing SIRPA_V1; y axis = CD47-Fc signal in % of no antibody [i]
T2 construct: Expressed on 293α cells from pcDNA3.2 V5-DEST or pFLAG V5-DEST (FLAG-tagged) vectors; also called human SIRPA Variant 1; hSIRPA V1
Protocol: After the culture supernatant of the human SIRPA and monkey SIRPA expression vector-introduced 293α cells prepared in Examples 5)-1 and 5)-2, respectively, was removed, 50 μL per well of cD13 (IgG2 and IgG4pf), cF44 (four different constant regions IgG1, IgG2, IgG4p, and IgG4pf), and cF63 (IgG2 and IgG4pf) diluted with 5% FBS-containing PBS to final concentrations of 0 to 10,000 ng/mL were added to each of pcDNA3.2 V5-DEST-SIRPA_V1, pcDNA3.2 V5-DEST-monkey SIRPA, and pcDNA3.2 V5-DEST-introduced 293α cells, immediately followed by addition of 50 μL per well of peroxidase-labeled CD47-Fc prepared in 5% FBS-containing PBS at a final concentration of 10,000 ng/ml, and the mixture was allowed to stand at 4° C. for one hour. Thereafter, the SIRPA-CD47 binding inhibitory activity was evaluated in the same manner as in 1)-6-3.

SIRPA_V2_IgV = target: T3, SIRPA_V2_IgV (human); assay: SPR Biacore T200, antibody captured on anti-human IgG (Fc), SIRPA_V2_IgV as analyte (0.25 to 16 nM), 1:1 model
T3 construct: Secreted recombinant protein; The crystal model held residues 33 to 143 of human SIRPA Variant 2
Protocol: The dissociation constants were measured by a capture method comprising capturing each antibody as a ligand to an Anti-Human IgG (Fc) antibody immobilized using Human Antibody Capture Kit (GE Healthcare Bioscience Corp.) and measuring an antigen as an analyte, using Biacore T200 (GE Healthcare Bioscience Corp.). HBS-EP+ (GE Healthcare Bioscience Corp.) was used as a running buffer, and CM5 (GE Healthcare Bioscience Corp.) was used as a sensor chip. Onto the chip, 2 μg/mL of various antibodies were added at 10 μL/min for 30 seconds, then a serially diluted solution (0.25 to 16 nM) of the human SIRPA protein as an antigen was added at a flow rate of 30 μL/min for 120 seconds, and subsequently the dissociation phase for 600 seconds was monitored. As a regenerant, 3 M magnesium chloride (GE Healthcare Bioscience Corp.) was added at a flow rate of 20 μL/min for 30 seconds. For data analysis, a binding rate constant (ka), a dissociation rate constant (kd), and a dissociation constant (KD; KD=kd/ka) were calculated using a 1:1 binding model.

human SIRPA_V2 protein = target: T4, human SIRPA_V2 protein (human, UniProt P78324 31-504); assay: blocking cell-based ELISA: peroxidase-labeled CD47-Fc (1 µg/mL) on 293α cells expressing SIRPA_V2
T4 construct: Expressed on 293α cells from pcDNA3.2 V5-DEST or pFLAG V5-DEST (FLAG-tagged) vectors; also called human SIRPA Variant 2; ECD variant (full-length, amino acids 1 to 504)
Protocol: After the culture supernatant of the human SIRPA_V1 or V2 expression vector-introduced 293 cells prepared in Example 9)-1 was removed, 50 μL per well of various anti-SIRPA antibodies or various control Human IgG diluted with 5% FBS-containing PBS to a final concentration of 0 to 10,000 ng/ml was added to each of pcDNA3.2 V5-DEST-SIRPA_V1 or V2-introduced 293α cells, immediately followed by addition of 50 µL per well of peroxidase-labeled CD47-Fc prepared with 5% FBS-containing PBS at 1 μg/mL, and the mixture was allowed to stand at 4° C. for one hour. Thereafter, the SIRPA-CD47 binding inhibitory activity was evaluated in the same manner as in 1)-6-3.

T2 sequence (P78324 31-504 limits assumed): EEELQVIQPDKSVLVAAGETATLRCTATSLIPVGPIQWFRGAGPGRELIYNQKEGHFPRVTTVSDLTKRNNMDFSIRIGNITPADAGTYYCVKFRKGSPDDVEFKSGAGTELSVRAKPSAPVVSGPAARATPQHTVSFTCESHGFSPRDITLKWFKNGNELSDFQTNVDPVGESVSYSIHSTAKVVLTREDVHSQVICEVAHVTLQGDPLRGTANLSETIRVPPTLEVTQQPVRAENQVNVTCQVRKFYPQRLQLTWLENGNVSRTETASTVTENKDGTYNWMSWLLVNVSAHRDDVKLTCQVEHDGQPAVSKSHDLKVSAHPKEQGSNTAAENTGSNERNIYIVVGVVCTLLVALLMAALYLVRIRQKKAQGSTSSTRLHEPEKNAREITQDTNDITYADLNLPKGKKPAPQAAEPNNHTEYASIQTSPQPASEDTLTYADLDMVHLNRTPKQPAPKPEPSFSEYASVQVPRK
T4 sequence (P78324 other isoform, or with tags, fused parts or gaps limits assumed): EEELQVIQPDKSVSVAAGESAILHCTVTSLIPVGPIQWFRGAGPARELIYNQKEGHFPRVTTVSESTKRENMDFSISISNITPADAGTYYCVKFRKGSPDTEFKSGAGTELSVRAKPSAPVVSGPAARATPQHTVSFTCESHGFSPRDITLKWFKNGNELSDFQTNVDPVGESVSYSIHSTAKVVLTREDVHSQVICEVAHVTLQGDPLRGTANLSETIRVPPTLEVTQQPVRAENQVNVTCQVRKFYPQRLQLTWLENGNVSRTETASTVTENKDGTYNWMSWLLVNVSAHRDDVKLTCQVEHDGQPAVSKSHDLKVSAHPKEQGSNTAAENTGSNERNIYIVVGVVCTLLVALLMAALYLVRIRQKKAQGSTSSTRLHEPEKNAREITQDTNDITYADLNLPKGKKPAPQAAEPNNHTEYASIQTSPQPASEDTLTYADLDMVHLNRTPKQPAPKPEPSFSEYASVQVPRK
T3 sequence (chain, as listed by the source limits assumed): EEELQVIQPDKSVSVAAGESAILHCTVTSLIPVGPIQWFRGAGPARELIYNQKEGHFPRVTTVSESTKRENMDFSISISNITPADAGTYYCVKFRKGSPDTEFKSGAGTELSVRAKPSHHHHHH

EC50 (read off the curve) (monkey SIRPA protein) [µg/mL]	IC50 (read off the curve) (human SIRPA_V1 protein) [µg/mL]	Kd (SIRPA_V2_IgV) [nM]	IC50 (human SIRPA_V2 protein) [µg/mL]	Binder
~0.1	~0.1			human chimeric anti-SIRPA antibody cD13 (antibody, human IgG4 S228P, kappa, F234A L235A, V domains shown, Human IgG4proFALA heavy chain, human kappa light chain; also called cD13 (IgG4pf); human chimeric antibody D13) VH: EVQLVESGGGLVQPGRSLKLSCLASGFTFSDYGMIWVRQAPGKGLEWVASISSSSSYIYYADTVKGRFTISRENAKNTLFLHMTSLRSEDTALYYCARRYYGFNYPFDYWGQGVMVTVSS VL: DTVLTQSPALAVSLGQRVTISCGASKSVRTYMHWYQQKSGQQPKLLIYSASNLEAGVPSRFSGSGSGTDFTLTIDPVEADDIANYYCQQSNEPPYTFGAGTKLELKR
		1.17	1.3	humanized anti-SIRPA antibody hD13_H1L3 (antibody, human IgG4 S228P, kappa, F234A L235A, V domains shown, hH1 heavy chain (IgG4proFALA) and hL3 kappa light chain; also called hD13_HIL3; HIL3 antibody) VH: QVQLVESGGGVVQPGRSLRLSCAASGFTFSDYGMIWVRQAPGKGLEWVASISSSSSYIYYADSVKGRFTISRDNSKNRLYLQMNSLRAEDTAVYYCARRYYGFNYPFDYWGQGTMVTVSS VL: DTQLTQSPSSLSASVGQRVTITCGASKSVRTYMHWYQQKPGKQPKLLIYSASNLEAGVPSRFSGSGSGTDFTLTISSLQPEDFATYYCQQSNEPPYTFGQGTKLEIKR
